Data from patent publication US20260069690A1.

Molecular target: S100A11 Q22R (mutant 25mer, peptide 60 / P60; residues not given) peptide on HLA-DR (human)
Assay: MSGV1 TCR-transduced healthy-donor peripheral blood T cells with B cells pulsed with the Q22R peptide. Secretion was inhibited by anti-HLA-DR/-DP/-DQ but not by anti-HLA-ABC. TNFa and Granzyme B were also released. The TIL clone released IFNg, TNFa and Granzyme B, which anti-HLA-DR blocked but anti-HLA-DP and anti-HLA-DQ did not.; full-length, on cells
Conditions: chains Valpha:Vbeta

IFNg released: > 15000 pg/mL
B1: S100A11^Q22R-specific TCR (protein)
chain 1: SQKIEQNSEALNIQEGKTATLTCNYTNYSPAYLQWYRQDPGRGPVFLLLIRENEKEKRKERLKVTFDTTLKQSLFHITASQPADSATYLCALDFTGGGNKLTFGTGTQLKVEL
chain 2: NAGVMQNPRHLVRRRGQEARLRCSPMKGHSHVYWYRQLPEEGLKFMVYLQKENIIDESGMPKERFSAEFPKEGPSILRIQQVVRGDSAAYFCASSPSTGGIGDTQYFGPGTRLTVL
